Measurements from the supplement of paper PMC10724198.
± gives the standard deviation of the averaged measurements.

System: Saccharomyces cerevisiae
Test: protein stability index of tFT-peptide fusion (C-terminal peptide) (PSI (0-1 scale)); higher = more stable (slower turnover)
Conditions: genetic background: wild type; temperature: 30 C
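Also: PSI is a weighted mean of sequencing reads over stability bins, variants kept only with over 10 reads, mCherry proximal and sfGFP distal, peptide attached via GGGS linker.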

Sequence | protein stability index
RGYVGVTQVCKN | 0.695 ± 0.043
RHDMTSGCVSHS | 0.703 ± 0.039
RHGLPPAPILSP | 0.661 ± 0.038
RHILFLLLTPHS | 0.5774 ± 0.0026
RHLACFWFRPPW | 0.694 ± 0.018
RHLRSGTRAKVY | 0.678 ± 0.013
RHPALPGPPGSS | 0.698 ± 0.13
RIAEYIDTKCPR | 0.708 ± 0.0074
RICTLCRGGRTP | 0.673 ± 0.03
RIDRDDHLVPNS | 0.626 ± 0.092
RIERIYEIKKNR | 0.68086 ± 7.2e-05
RIIIRNIKKKTE | 0.641 ± 0.023
RILIRVQSSKLR | 0.671 ± 0.09
RILNADSREHSS | 0.775 ± 0.12
RIVASTLKSYLT | 0.68835 ± 0.00068
RIVQQATHVREH | 0.787 ± 0.011
RKEKKMKITKRC | 0.691 ± 0.044
RKEQKGKGKEGG | 0.697 ± 0.024
RKFLCKSPIECS | 0.574 ± 0.015
RKHMCSYIRVSR | 0.723 ± 0.085
RKINQKNNEKNS | 0.648 ± 0.0037
RKIRRLIVKKGI | 0.67 ± 0.022
RKKENRYKIEVK | 0.6799 ± 0.0017

Sequence | protein stability index
RKKGRKKKQDKN | 0.689 ± 0.023
RKKIKRKNNKEK | 0.685 ± 0.052
RKKKKDKSAIKE | 0.722 ± 0.018
RKKRRKVKRSEK | 0.547 ± 0.034
RKKTKKEKSEEI | 0.694 ± 0.031
RKLHDKDDPKTI | 0.681 ± 0.03
RKMQKKFESKKM | 0.76 ± 0.039
RKMTSIINKKTV | 0.513 ± 0.0083
RKNENKKKKNKK | 0.702 ± 0.012
RKQHKLRKTKRA | 0.657 ± 0.061
RKQKRGSKKKKQ | 0.721 ± 0.049
RKQRERGKCGKR | 0.726 ± 0.031
RKRHDLPPAGPH | 0.713 ± 0.023
RKRTIVCRPGRV | 0.698 ± 0.021
RKSKYKGTQRIN | 0.564 ± 0.011
RKTQKIEQKQKE | 0.756 ± 0.076
RKVTKLYDNIML | 0.776 ± 0.1
RKVVLLFGLGEG | 0.669 ± 0.026
RLAPASAFPHSP | 0.687 ± 0.052
RLAVGMIRPQGE | 0.637 ± 0.024
RLDGVTPVRTCL | 0.661 ± 0.054
RLEDGCGVGAGR | 0.645 ± 0.015
RLFPSPIYLARF | 0.676 ± 0.12

Sequence | protein stability index
RLGECSRKSYHT | 0.692 ± 0.024
RLGGLLCSPLVD | 0.705 ± 0.097
RLGPSAPLFVHL | 0.542 ± 0.042
RLGRATLLLLFF | 0.572 ± 0.12
RLHSLLFYALGS | 0.668 ± 0.028
RLLASIRAAQAS | 0.525 ± 0.1
RLLDLRLYVGKG | 0.618 ± 0.012
RLLENVSYDWRN | 0.714 ± 0.016
RLLFPPPMLPPP | 0.735 ± 0.038
RLLGSSPAVLLY | 0.628 ± 0.062
RLLLSVLFGFFA | 0.5248 ± 0.0011
RLLYGICLLGAS | 0.558 ± 0.092
RLPPPPSPPPPP | 0.688 ± 0.016
RLPPPSPPVPLL | 0.695 ± 0.0081
RLPVKQQVLPDK | 0.6783 ± 0.0062
RLQSSRQMLVPS | 0.63729 ± 0.00036
RLRESMYPSSEE | 0.717 ± 0.0085
RLREVVHKYNSI | 0.757 ± 0.086
RLRRSSSNPHSP | 0.656 ± 0.043
RLSCCKCRGGAV | 0.6979 ± 0.0042
RLSFSVPPCLDI | 0.691 ± 0.032
RLSLGPGLLGSH | 0.74 ± 0.014
RLSNIARRQENG | 0.623 ± 0.017

Sequence | protein stability index
RLSPPPTLSRFH | 0.643 ± 0.03
RLSSPTRINHPN | 0.71 ± 0.04
RLTLKKMIKQNV | 0.56 ± 0.016
RLTLPSQPHAPA | 0.694 ± 0.098
RLTYVGDYELYV | 0.686 ± 0.053
RLVAHPSRPLPV | 0.647 ± 0.033
RLVISPRSRPCP | 0.725 ± 0.069
RLVLRGRWGIGR | 0.618 ± 0.0014
RLVTSCSAAGSG | 0.671 ± 0.007
RLWKQPWLTMAF | 0.496 ± 0.038
RLWPPGGEFRLV | 0.719 ± 0.078
RLWSSFKRHGAA | 0.743 ± 0.022
RLYCSWEFTFVQ | 0.617 ± 0.019
RMATGNPAPHPP | 0.735 ± 0.04
RMSHFNTDSVHF | 0.761 ± 0.019
RNGALSVVCDYV | 0.698 ± 0.15
RNIMKQQNTSIR | 0.717 ± 0.078
RNIQKKKKIQHI | 0.514 ± 0.047
RNKEPRSSRQNS | 0.578 ± 0.009
RNRTNVETKTGS | 0.6966 ± 0.0034
RPAPPLFVSSPG | 0.699 ± 0.0097
RPAPPPHPLSPV | 0.7 ± 0.031
RPEVRIHITSQS | 0.655 ± 0.017

Sequence | protein stability index
RPFPLTRPTLLF | 0.67 ± 0.016
RPGDAASGARGA | 0.691 ± 0.081
RPGPRAASADCP | 0.72 ± 0.025
RPIPMEGAYYLV | 0.693 ± 0.027
RPKPKRIGREEP | 0.63 ± 0.083
RPLPPLPPPSCP | 0.71 ± 0.046
RPLPPPPPPRSP | 0.741 ± 0.21
RPPAPQTATPHR | 0.726 ± 0.013
RPPCFRPPPPPL | 0.715 ± 0.072
RPPPGTPPGWSP | 0.73 ± 0.028
RPPPPLPQAPPT | 0.679 ± 0.0082
RPPPPPSPPPPP | 0.674 ± 0.073
RPPPPSPAPTPP | 0.723 ± 0.045
RPPPRPPHPPPL | 0.6791 ± 0.0048
RPPYIALAPSDR | 0.694 ± 0.0097
RPPYRRSPPRSP | 0.616 ± 0.019
RPRVETGGLPWV | 0.703 ± 0.029
RPSHSRPITLPT | 0.707 ± 0.12
RPSLPPSPPPPP | 0.848 ± 0.22
RPSLTPSPPPFP | 0.64 ± 0.018
RPSPSAQFITCA | 0.646 ± 0.013
RPSVSNVSEAEE | 0.6479 ± 0.0037
RPTPLSTPPPLG | 0.644 ± 0.039

Sequence | protein stability index
RPTQYIYGINET | 0.6525 ± 0.0034
RQDGSPREGIRH | 0.713 ± 0.04
RQKNKIATVVEE | 0.664 ± 0.026
RQRSTGGISNRS | 0.718 ± 0.043
RQSLEDSLLHQH | 0.774 ± 0.081
RRAAVGGCLGGW | 0.726 ± 0.017
RRAAYARVFCRI | 0.641 ± 0.046
RRADFSWPVVVE | 0.591 ± 0.022
RRARSAGADPRP | 0.684 ± 0.02
RRDRRVGEGEGV | 0.699 ± 0.059
RREKQKTPAKKT | 0.634 ± 0.034
RRGEKKDEKGGR | 0.67 ± 0.062
RRGLHWQAVCRY | 0.733 ± 0.023
RRGRNDLEESMR | 0.702 ± 0.0078
RRGVAEGVDGEG | 0.615 ± 0.0071
RRGYEVSSLSDD | 0.672 ± 0.0042
RRHRPKNEVPLC | 0.705 ± 0.029
RRIIISSSYIYE | 0.672 ± 0.012
RRIQNHPDSTSA | 0.696 ± 0.067
RRKGVAGKWARR | 0.586 ± 0.058
RRKLMLWTSKLE | 0.705 ± 0.05
RRLLLAGTQLYV | 0.598 ± 0.073
RRLMMPSGQGLT | 0.702 ± 0.031

Sequence | protein stability index
RRLNNTPPVENC | 0.753 ± 0.15
RRNDRKKKSIRI | 0.684 ± 0.059
RRPAPTRPPHTK | 0.711 ± 0.013
RRPLAPHPPLPP | 0.678 ± 0.01
RRPLLSTPAPCS | 0.755 ± 0.025
RRPRKSAAGLRG | 0.768 ± 0.08
RRPRPRSGWILL | 0.69 ± 0.047
RRRRSITEHRSS | 0.69279 ± 0.00018
RRRSSRPAPPPL | 0.698 ± 0.023
RRRTGRRNCTET | 0.712 ± 0.038
RRSIAVEFSGTG | 0.679 ± 0.041
RRSTIHSRLFGA | 0.6786 ± 0.0041
RRTKKERQKSWK | 0.649 ± 0.038
RRVCLIASLWGC | 0.625 ± 0.023
RRVELCWAAGVR | 0.641 ± 0.025
RRVGVVAWGRGG | 0.71 ± 0.01
RRVRGGAAEKET | 0.723 ± 0.1
RSALFLLTLVPI | 0.565 ± 0.018
RSDKRTRYRIII | 0.751 ± 0.17
RSFFDRLNRSLS | 0.666 ± 0.032
RSFYDNVLRPFK | 0.776 ± 0.035
RSGENTVKPVRQ | 0.658 ± 0.029
